Data on 2 molecules can be found in article PMC8942982, “The role of lysine palmitoylation/myristoylation in the function of the TEAD transcription factors” (Scientific Reports, 2022).

Holding throughout (assay): SPR; biotinylated-Avitagged Sd proteins immobilized on sensor chips; Yki^30-146 or Vg^263-382 as analyte; carried out as previously described (ref. 28)
Holding throughout (details): both partners purified
(In general: SPR reads the build-up and loss of mass on a sensor chip optically.)

Experiment [1] addresses T1, Scalloped, residues 223-440, Lys350Ala mutant (Lys350Ala^Sd) (Drosophila melanogaster, UniProt P30052 223-440, Lys350Ala, acylated to completion with Myristoyl-Coenzyme A, only on Cys373 (hydroxylamine-sensitive, 100%); biotin on the Avitag).
T1 construct: Scalloped (Sd), Drosophila homolog of human TEAD, UniProtKB P30052, residues 223-440, with Lys350Ala; Mutation introduced into wt^Sd; source: E. coli, purified in a similar manner to wt^Sd, treated with Myristoyl-Coenzyme A
T1 sequence (looked up): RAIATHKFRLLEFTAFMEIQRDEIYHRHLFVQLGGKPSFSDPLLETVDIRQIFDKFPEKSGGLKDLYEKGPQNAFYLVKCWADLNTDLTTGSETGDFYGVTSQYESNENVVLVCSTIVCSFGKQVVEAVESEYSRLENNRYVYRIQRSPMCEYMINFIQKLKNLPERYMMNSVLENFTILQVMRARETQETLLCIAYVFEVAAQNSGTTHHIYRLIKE

Experiment [2] addresses T2, Scalloped, residues 223-440, Glu352Gln mutant (Glu352Gln^Sd) (Drosophila melanogaster, UniProt P30052 223-440, Glu352Gln, acylated to completion with Myristoyl-Coenzyme A: predominantly on Lys350 (hydroxylamine-insensitive, 90%), the rest on Cys373 (10%); biotin on the Avitag).
T2 construct: Scalloped (Sd), Drosophila homolog of human TEAD, UniProtKB P30052, residues 223-440, with Glu352Gln; Mutation introduced into wt^Sd; source: E. coli, purified in a similar manner to wt^Sd, treated with Myristoyl-Coenzyme A
T2 sequence (looked up): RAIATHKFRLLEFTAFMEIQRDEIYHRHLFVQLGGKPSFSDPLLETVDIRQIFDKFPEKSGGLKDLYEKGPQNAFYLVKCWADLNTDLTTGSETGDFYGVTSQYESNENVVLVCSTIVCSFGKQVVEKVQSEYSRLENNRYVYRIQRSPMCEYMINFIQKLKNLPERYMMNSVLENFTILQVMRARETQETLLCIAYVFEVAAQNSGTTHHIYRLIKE

For experiment [3], the target named is T3, Scalloped, residues 223-440, wild type (Sd^223-440) (Drosophila melanogaster, UniProt P30052 223-440, acylated to completion with Myristoyl-Coenzyme A: a mixture acylated on Cys373 (hydroxylamine-sensitive, 47%) or on Lys350 (hydroxylamine-insensitive, 54%); biotin on the Avitag).
T3 construct: Scalloped (Sd), Drosophila homolog of human TEAD, UniProtKB P30052, residues 223-440; also called wt^Sd
T3 sequence (looked up): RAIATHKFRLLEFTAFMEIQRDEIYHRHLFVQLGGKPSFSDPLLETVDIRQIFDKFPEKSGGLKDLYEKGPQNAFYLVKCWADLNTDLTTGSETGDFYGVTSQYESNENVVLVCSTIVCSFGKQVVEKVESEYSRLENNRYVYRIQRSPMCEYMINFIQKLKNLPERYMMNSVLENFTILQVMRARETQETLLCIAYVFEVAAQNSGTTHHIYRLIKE

B1: Vestigial, residues 263-382 (Vg^263-382) (domain or fragment, Drosophila melanogaster, UniProt Q26366 263-382, looked up)
chain: ETPMGSGGGGLAGSGQGQAQYLSASCVVFTNYSGDTASQVDEHFSRALNYNNKDSKESSSPMSNRNFPPSFWNSNYVHPIPAPTHHQVSDLYGTATDTGYATDPWVPHAAHYGSYAHAAH
Consider B1, for which the Kd in experiment [1] is 2.3 nM; in experiment [2], 0.37 nM; in experiment [3], 0.38 nM.

B2: Yorkie, residues 30-146 (Yki^30-146) (domain or fragment, Drosophila melanogaster, UniProt Q45VV3 30-146, looked up)
chain: SNNLVVRVNQDTDDNLQALFDSVLNPGDAKRPLQLPLRMRKLPNSFFTPPAPSHSRANSADSTYDAGSQSSINIGNKASIVQQPDGQSPIAAIPQLQIQPSPQHSRLAIHHSRARSS
Turning to B2, the figures for the Kd in experiment [1], in experiment [2] and in experiment [3] were 14 nM, 4.9 nM and 9.5 nM, respectively.

One may read the Kd as a measure of binding affinity in units of concentration.
